Data as given in article PMC11388019, “Autoregulatory mechanism of enzyme activity by the nuclear localization signal of lysine-specific demethylase 1 [drawing 1]” (The Journal of Biological Chemistry, 2024).

Assays:
[1] = biological target: ΔN LSD1 (171–852)–CoREST (286–482) complex (human) (UniProt O60341); experiment: enzyme inhibition kinetics (peroxidase-coupled demethylase assay); 0.3 μM ΔN LSD1-CoREST, 50 mM Hepes (Na) pH 7.5, 25 °C; H3K4me2 peptide (1-21) substrate 10-60 μM; NLS 0-10 μM or NLSp∗ 0-100 μM; fit to competitive inhibition; Ki called apparent in the legend
[2] = biological target: ΔN LSD1 (171–852)–CoREST (286–482) complex (human) (UniProt O60341)
[3] = biological target: biotinylated recombinant human nucleosome (unmodified, 147 bp 601 DNA) (human) (UniProt P68431); experiment: SPR; biotinylated recombinant human nucleosomes (147 bp 601 DNA) immobilised on a streptavidin chip SA at 4000-5000 RU; LSD1-CoREST injected at 5-2000 nM (full length up to 500 nM), 40 μl/min; Biacore 3000, 298 K; running buffer 10 mM Tris, 100 mM NaCl, 1 mM EDTA, 2 mM TCEP, 0.005% Tween 20, pH 7.4; apparent Kd
[4] = biological target: biotinylated NT-LSD1 (residues 100–151) (human); experiment: SPR; biotinylated NT-LSD1 immobilised at 560 RU; ΔN LSD1-CoREST injected at 25-1000 nM, 40 μl/min, in running buffer

Row | Ki [1] [µM] | IC50 of inhibition of ΔN LSD1-CoREST demethylation of H3K4me2 nucleosomes (quantitative Western blot, NLS peptide 10-400 μM) [2] [µM] | Kd [3] [µM] | Kd [4] [µM] | Substance
1 | 3.3 | 30.4 |  |  | NLS peptide (LSD1 aa 107–120)
2 |  |  | 0.103 |  | full-length LSD1 (1–852)-CoREST (286–482) complex (from UniProt O60341 1-852)
3 | 38.7 |  |  |  | phosphomimic NLS peptide (aa 107–120, T110D/S111D)
4 |  |  | 1.76 | 0.571 | ΔN LSD1 (171–852)–CoREST (286–482) complex (from UniProt O60341 171-852)
